Results from US20200184403A1 (DOW AGROSCIENCES, published 2020).

Target: the molecule itself
Assay: SDS-PAGE of undigested full-length DIG-177 (self-association)
Description: SDS-PAGE was run following the protocol NuPAGE Bis-Tris gels from Invitrogen Life technologies (Protocol Pub. No. MAN0007894 Rev. A.0, Ref.2). Briefly, samples were mixed with denaturing sample buffer (Invitrogen) plus 5 mM DTT (for reducing PAGE) or minus DTT (for non reducing PAGE) and heated at 95° C. for 5 minutes. The samples were loaded onto Invitrogen Bis/Tris gel. The gel was run with MOPS or MES running buffer under 200 V for ˜43 minutes. The gel was stained with Coomassie blue staining solution (Bio-Rad) for 30 minutes and de-stained with de-staining solution (7% Acetic acid and 5% Methanol in water) until the background cleared.

B1: DIG-177 (full length wild type Cry6Aa) (other)
chain: MIIDSKTTLPRHSLIHTIKLNSNKKYGPGDMTNGNQFIISKQEWATIGAYIQTGLGLPVNEQQLRTHVNLSQDISIPSDFSQLYDVYCSDKTSAEWWNKNLYPLIIKSANDIASYGFKVAGDPSIKKDGYFKKLQDELDNIVDNNSDDDAIAKAIKDFKARCGILIKEAKQYEEAAKNIVTSLDQFLHGDQKKLEGVINIQKRLKEVQTALNQAHGESSPAHKELLEKVKNLKTTLERTIKAEQDLEKKVEYSFLLGPLLGFVVYEILENTAVQHIKNQIDEIKKQLDSAQHDLDRDVKIIGMLNSINTDIDNLYSQGQEAIKVFQKLQGIWATIGAQIENLRTTSLQEVQDSDDADEIQIELEDASDAWLVVAQEARDFTLNAYSTNSRQNLPINVISDSCNCSTTNMTSNQYSNPTTNMTSNQYMISHEYTSLPNNFMLSRNSNLEYKCPENNFMIYWYNNSDWYNNSDWYNN
notes: Recombinant, produced in Pseudomonas fluorescens (standard) or in maize cells (Western blots)
B1: binds.
